Like-named read-outs stand apart in the source and are kept apart here.
Legend:
[1] = target: Porcine trypsin (porcine) (UniProt P00761)
[2] = target: Factor Xa (as used in Example 3) (Homo sapiens (Human)) (UniProt P00742); assay: proteinase inhibition: enzyme incubated 30 min with KFN 1593, residual activity on peptidyl nitroanilide substrate at 405 nm
[3] = target: Porcine trypsin (porcine) (UniProt P00761); assay: as above
[4] = target: T1, Porcine trypsin (Sus scrofa, UniProt P00761); assay: Inhibition of serine proteinases: trypsin, peptidyl nitroanilide substrate, residual activity at 405 nm; assay type: biochemical; conditions: enzyme 10 nM, read-out: Apparent Ki (nM), Trypsin
T1 construct: purchased Novo Nordisk (Bagsvaerd, Denmark; the applicant itself)
Description: (§1) KFN 1593 was purified from yeast culture medium as described in example 1. The concentration of KFN 1593 was determined using 1% E280 nm =8.3 and Mw =6500. Porcine trypsin was from Novo Nordisk (Bagsv.ae butted.rd, Denmark), bovine chymotrypsin (TLCK treated) and porcine pancreatic kallikrein was from Sigma Chemical Co (St. Louis, Mo., U.S.A.), human plasmin and human plasma kallikrein was from Kabi (Stockholm, Sweden).
(§2) Human neutrophil elastase and cathepsin G was purified from extracts of PMNs according to the method described by Baugh and Travis (Biochemistry 15 (1976) 836-843). Peptidyl nitroanilide substrates, S2251, S2586, S2266, S2302 were from Kabi (Stockholm, Sweden). M4765 and S7388 was from Sigma Chemical Co (St. Louis, Mo., U.S.A.) and FXa-1 was from NycoMed (Oslo, Norway).
(§3) Serine proteinases were incubated with various concentrations of KFN 1593 for 30 min. Substrate was then added and residual proteinase activity was measured at 405 nm.
(§4) The three TFPI (domain II) variants were purified from yeast culture medium. Their concentrations were determined from the absorbance at 214 nm using BPTI as a standard. The final concentration was determined by titration with trypsin. Porcine trypsin and human recombinant proteins, factor VIIa, activated protein C (ACP), and tPA were obtained from Novo Nordisk A/S (Bagsvaerd, Denmark), so was human thrombin. Bovine chymotrypsin and glandular kallikrein were obtained from Sigma Chemical Co. (St. Louis, Mo., U.S.A.). Truncated human recombinant tissue factor was obtained from Corvas (San Diego, Calif., U.S.A.). Human neutrophil cathepsin G was purified from extracts of PMNs according to the method described by Baugh and Travis (Biochemistry 15 (1976) 836-843). Human plasmin was from Kabi (Stockholm, Sweden), uPA was from Serono (Milan, Italy), human factor Xa was a gift from Dr. W. Kisiel (Albuquerque, N.M., U.S.A.), and human plasma kallikrein was a gift from Dr. I Schousboe (Copenhagen, Denmark).
(§5) Peptidyl nitroanilide substrates, S2251, S2302, S2266, S2586, S2288, S2444, S2366, and S2238 were from Kabi (Stockholm, Sweden). S7388 and M4765 were from Sigma Chemical Co. (St. Louis, Mo., U.S.A.) and FXa-1 was from Nycomed (Oslo, Norway).
(§6) Serine proteinases were incubated with various concentrations of Kunitz Domain variant for 30 min. Substrate (0.6 mM) was then added and residual proteinase activity was measured at 405 nm.
(§7) The four variants were purified from yeast culture medium. Their concentrations were determined from the absorbance at 214 nm using BTPI as a standard. Porcine trypsin was obtained from Novo Nordisk A/S (Bagsvaerd, Denmark, bovine chymotrypsin (TLCK treated) was obtained from Sigma Chemical Co. (St. Louis, Mo., U.S.A.). Truncated human recombinant tissue factor was obtained from Corvas (San Diego, Calif., U.S.A.). Human plasmin was from Kabi (Stockholm, Sweden). Human neutrophil cathepsin G and elastase were purified from extracts of PMNs according to the method described by Baugh and Travis (Biochemistry 15 (1976) 836-843).
(§8) Peptidyl nitroanilide substrates, S2251, S2586 were from Kabi (Stockholm, Sweden). S7388 and M4765 were from Sigma Chemical Co. (St. Louis, Mo., U.S.A.).
(§9) Serine proteinases were incubated with various concentrations of the variants for 30 min. Substrate ([…]) was then added and residual proteinase activity was measured at 405 nm.

[5] = target: T2, plasma kallikrein (Homo sapiens, UniProt P03952); assay: Inhibition of serine proteinases: plasma kallikrein; assay type: biochemical; conditions: Example 8; enzyme 3 nM, substrate S2302 0.6 mM, 30 min incubation; read-out: Apparent Ki (nM), Pl. kallikrein
Description: as §1, §2, §3, §4, §5, §6
Target sequence in this assay (P03952 391-638 limits assumed): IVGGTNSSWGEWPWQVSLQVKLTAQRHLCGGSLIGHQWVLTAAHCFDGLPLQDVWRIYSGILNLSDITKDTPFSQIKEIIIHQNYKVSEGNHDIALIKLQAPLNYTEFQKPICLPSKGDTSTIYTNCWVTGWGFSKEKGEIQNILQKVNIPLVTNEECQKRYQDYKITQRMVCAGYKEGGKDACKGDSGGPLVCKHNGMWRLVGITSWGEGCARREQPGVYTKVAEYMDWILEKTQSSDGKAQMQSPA
Target sequence in this assay (P03952 20-390 limits assumed): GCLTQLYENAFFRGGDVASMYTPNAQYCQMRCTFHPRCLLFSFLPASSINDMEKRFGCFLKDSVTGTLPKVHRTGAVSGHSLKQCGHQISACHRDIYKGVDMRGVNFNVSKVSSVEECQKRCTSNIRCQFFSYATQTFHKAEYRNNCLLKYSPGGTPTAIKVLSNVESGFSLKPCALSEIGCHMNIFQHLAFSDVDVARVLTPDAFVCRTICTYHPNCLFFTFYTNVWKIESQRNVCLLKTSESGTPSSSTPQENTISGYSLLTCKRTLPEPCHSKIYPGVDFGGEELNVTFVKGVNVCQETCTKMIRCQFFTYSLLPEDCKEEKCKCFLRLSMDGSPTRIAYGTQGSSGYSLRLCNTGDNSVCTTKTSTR

[6] = target: T3, glandular kallikrein (porcine pancreatic kallikrein) (Sus scrofa, UniProt P00752); assay: Inhibition of serine proteinases: glandular kallikrein; assay type: biochemical; conditions: Example 8; enzyme 1 U/ml, substrate S2266 0.6 mM, 30 min incubation; read-out: Apparent Ki (nM), Gl. kallikrein
T3 construct: purchased Sigma Chemical Co (St. Louis, Mo., U.S.A.)
Description: as §1, §2, §3, §4, §5, §6

[7] = target: T4, Bovine chymotrypsin (Bos taurus, UniProt P00766); assay: Inhibition of serine proteinases: chymotrypsin; assay type: biochemical; conditions: enzyme 2.5 nM, substrate S2586 0.6 mM, 30 min incubation
T4 construct: purchased Sigma Chemical Co. (St. Louis, Mo., U.S.A.)
Description: as §4, §5, §6, §7, §8, §9

[8] = target: T5, Human plasmin (Homo sapiens, UniProt P00747); assay: Inhibition of serine proteinases: plasmin; assay type: biochemical; design: human plasmin and human plasma kallikrein was from Kabi (Stockholm, Sweden); purchased Kabi (Stockholm, Sweden); conditions: enzyme 4 nM, 30 min incubation, read-out: Apparent Ki (nM), Plasmin
Description: as §1, §2, §3, §4, §5, §6, §7, §8, §9
Target sequence in this assay (P00747 581-810 limits assumed): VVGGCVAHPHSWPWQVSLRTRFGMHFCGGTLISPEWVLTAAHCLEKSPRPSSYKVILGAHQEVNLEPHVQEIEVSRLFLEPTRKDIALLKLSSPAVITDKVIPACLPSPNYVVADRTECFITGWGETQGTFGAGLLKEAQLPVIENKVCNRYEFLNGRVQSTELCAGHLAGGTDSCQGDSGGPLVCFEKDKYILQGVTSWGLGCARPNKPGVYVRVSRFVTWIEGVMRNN
Target sequence in this assay (P00747 97-580 limits assumed): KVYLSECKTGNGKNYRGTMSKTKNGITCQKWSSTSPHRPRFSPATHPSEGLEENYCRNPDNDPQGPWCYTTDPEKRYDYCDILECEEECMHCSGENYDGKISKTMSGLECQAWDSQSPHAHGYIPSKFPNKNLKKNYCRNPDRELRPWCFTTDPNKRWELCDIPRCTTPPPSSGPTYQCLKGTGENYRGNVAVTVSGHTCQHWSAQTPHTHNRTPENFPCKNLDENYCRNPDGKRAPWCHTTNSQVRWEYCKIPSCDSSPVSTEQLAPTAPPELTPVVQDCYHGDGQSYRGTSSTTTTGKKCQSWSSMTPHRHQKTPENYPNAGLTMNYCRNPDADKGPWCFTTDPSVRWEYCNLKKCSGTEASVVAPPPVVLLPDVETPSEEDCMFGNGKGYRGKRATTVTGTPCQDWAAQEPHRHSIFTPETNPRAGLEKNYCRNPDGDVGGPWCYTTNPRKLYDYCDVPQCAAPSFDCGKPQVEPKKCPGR

[9] = target: T5, Human plasmin
[10] = target: Porcine trypsin (porcine) (UniProt P00761); remark: listed apart in the source
[11] = target: bovine chymotrypsin (TLCK treated) (bovine) (UniProt P00766)
[12] = target: glandular kallikrein (as used in Example 8) (Sus scrofa (Pig)) (UniProt P00752)
[13] = target: T2, plasma kallikrein
[14] = target: T5, Human plasmin; assay: apparent Ki; 4 nM plasmin, substrate S2251, 30 min preincubation, residual activity at 405 nm
[15] = target: Porcine trypsin (porcine) (UniProt P00761); assay: apparent Ki; 10 nM trypsin, substrate S2251, 30 min preincubation, residual activity at 405 nm
[16] = target: bovine chymotrypsin (TLCK treated) (bovine) (UniProt P00766); assay: apparent Ki; 2.5 nM chymotrypsin, substrate S2586, 30 min preincubation, residual activity at 405 nm
[17] = target: T2, plasma kallikrein; assay: apparent Ki; 3 nM plasma kallikrein, substrate S2302, 30 min preincubation, residual activity at 405 nm
[18] = target: glandular kallikrein (as used in Example 8) (Sus scrofa (Pig)) (UniProt P00752); assay: apparent Ki; 1 U/ml glandular kallikrein, substrate S2266, 30 min preincubation, residual activity at 405 nm
[19] = target: T6, Human neutrophil elastase (Homo sapiens, UniProt P08246); assay: Inhibition of serine proteinases: neutrophil elastase; assay type: biochemical; conditions: Example 9
T6 construct: Human neutrophil elastase and cathepsin G was purified from extracts of PMNs; from tissue; host or cells: extracts of human polymorphonuclear leukocytes (PMNs), method of Baugh and Travis
T6 sequence (P08246 30-267): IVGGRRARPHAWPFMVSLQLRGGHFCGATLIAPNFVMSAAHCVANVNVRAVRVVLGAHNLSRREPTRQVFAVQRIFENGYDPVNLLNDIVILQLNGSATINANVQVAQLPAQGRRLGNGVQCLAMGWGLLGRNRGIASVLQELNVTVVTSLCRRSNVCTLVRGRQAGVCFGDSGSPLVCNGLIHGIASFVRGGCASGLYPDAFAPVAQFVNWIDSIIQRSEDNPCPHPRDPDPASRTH
Description: as §1, §2
Serine proteinases were incubated with various concentrations of KFN 1593 for 30 min. Substrate was then added and residual proteinase activity was measured at 405 nm. […]
as §7, §8, §9

[20] = target: T7, Human neutrophil cathepsin G (Homo sapiens, UniProt P08311); assay: Inhibition of serine proteinases: neutrophil cathepsin G; assay type: biochemical; conditions: Example 9; enzyme 50 nM, substrate S7388, 30 min incubation; read-out: Apparent Ki (nM), N. cathepsin G
T7 construct: Human neutrophil cathepsin G was purified from extracts of PMNs; from tissue; host or cells: extracts of human polymorphonuclear leukocytes (PMNs), method of Baugh and Travis
T7 sequence (P08311 21-255): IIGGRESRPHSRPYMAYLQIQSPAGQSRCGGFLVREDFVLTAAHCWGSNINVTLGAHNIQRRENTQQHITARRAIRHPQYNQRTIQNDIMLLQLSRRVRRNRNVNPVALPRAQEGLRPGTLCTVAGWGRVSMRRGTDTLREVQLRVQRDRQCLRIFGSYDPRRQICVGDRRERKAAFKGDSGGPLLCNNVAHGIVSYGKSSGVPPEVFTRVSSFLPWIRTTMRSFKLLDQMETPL
Description: as §1, §2, §3, §4, §5, §6, §7, §8, §9

[21] = Example 8, substrate S2251 0.6 mM, 30 min incubation
[22] = Example 8, read-out: Apparent Ki (nM), chymotrypsin
[23] = Example 8, substrate S2251 0.6 mM

T3 sequence (P00752 8-246): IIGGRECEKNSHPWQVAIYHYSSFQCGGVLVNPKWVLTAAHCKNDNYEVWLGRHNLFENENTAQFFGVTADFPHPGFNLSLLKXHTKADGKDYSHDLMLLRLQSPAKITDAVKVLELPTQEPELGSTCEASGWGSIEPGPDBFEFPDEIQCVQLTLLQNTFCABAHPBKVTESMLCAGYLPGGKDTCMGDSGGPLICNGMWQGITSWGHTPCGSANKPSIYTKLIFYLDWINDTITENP
T1 sequence (P00761 9-231): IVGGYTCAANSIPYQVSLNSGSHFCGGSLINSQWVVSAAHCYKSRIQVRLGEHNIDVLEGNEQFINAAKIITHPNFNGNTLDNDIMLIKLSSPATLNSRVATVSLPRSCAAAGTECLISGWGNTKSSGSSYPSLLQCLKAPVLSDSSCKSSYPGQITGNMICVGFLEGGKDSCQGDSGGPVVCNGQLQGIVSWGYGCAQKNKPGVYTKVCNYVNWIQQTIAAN

Row | Ki [4, 21] [nM] | Ki [5] [nM] | Ki [6] [nM] | Ki [7, 22] [nM] | Ki [8, 23] [nM] | apparent Ki [9] [nM] | apparent Ki [10] [nM] | apparent Ki [11] [nM] | apparent Ki [12] [nM] | apparent Ki [13] [nM] | Ki [14] [nM] | Ki [15] [nM] | Ki [16] [nM] | Ki [17] [nM] | Ki [18] [nM] | Substance | other results
1 | < 1 | > 100 | > 100 | 20 | 3 | – | – | – | – | – | – | – | – | – | – | [R15K, G16A, Y17R, T19I, L39R, E46K]-TFPI-2 [KFN 1868] | –
2 | – | – | – | – | – | 3 | < 1 | 20 | > 100 | > 100 | 3 | < 1 | 20 | > 100 | > 100 | [R15K, G16A, Y17R, T19I, L39R, E46K]-TFPI-2 from yeast strain KFN-1868 (from UniProt P10646) | –
3 | < 1 | > 100 | > 100 | 20 | 3 | – | – | – | – | – | – | – | – | – | – | [R15K, G16A, Y17R, T19I, L39R]-TFPI-2 [KFN 1867] | –
4 | < 1 | > 100 | > 100 | 10 | 3 | – | – | – | – | – | – | – | – | – | – | [R15K, G16A, Y17R, T19I]-TFPI-2 [KFN 1811] | –
5 | – | – | – | – | – | 3 | < 1 | 10 | > 100 | > 100 | 3 | < 1 | 10 | > 100 | > 100 | [R15K, G16A, Y17R, T19I]-TFPI-2 from yeast strain KFN-1811 (from UniProt P10646) | –

Continued, substance first:

Row | Substance | Ki [4, 21] [nM] | Ki [5] [nM] | Ki [6] [nM] | Ki [7, 22] [nM] | Ki [8, 23] [nM] | apparent Ki [9] [nM] | apparent Ki [10] [nM] | apparent Ki [11] [nM] | apparent Ki [12] [nM] | apparent Ki [13] [nM] | Ki [14] [nM] | Ki [15] [nM] | Ki [16] [nM] | Ki [17] [nM] | Ki [18] [nM] | other results
6 | TFPI-2, the second Kunitz domain of tissue factor pathway inhibitor, from yeast strain KFN-1593 (from UniProt P10646) | – | – | – | – | – | – | – | – | – | – | – | – | – | – | – | residual proteinase activity at 405 nm [1]: 5 nM; Ki [2]: 150 nM; Ki [3]: 5 nM
7 | [R15K, G16A, Y17R, T19I, L39R]-TFPI-2 from yeast strain KFN-1867 (from UniProt P10646) | – | – | – | – | – | 3 | < 1 | 20 | > 100 | > 100 | 3 | < 1 | 20 | > 100 | > 100 | –
8 | [R15L, G16A]-TFPI-2 [KFN 1893] | – | – | – | – | – | – | – | – | – | – | – | – | – | – | – | Ki ([4]; Example 9, substrate S2251, 30 min incubation): > 1000 nM; neutrophil elastase inhibition (in words) [19]: strong inhibitors; Ki ([19]; enzyme 4 nM, substrate M4765, 30 min incubation, read-out: Apparent Ki (nM), N. elastase): 0.23 nM; Ki [20]: > 1000 nM; Ki ([7]; Example 9, read-out: Apparent Ki (nM), Chymotrypsin): < 5 nM; Ki ([8]; Example 9): > 1000 nM
